Measurements taken from article PMC3558936 (Neuron, 2013).

Biological target: the molecule itself
Experiment: FRET or BRET

B1: Ciona intestinalis Hv1 (Ci-Hv1) D171A/S242C channel (natural protein, UniProt Q1JV40 1-342, looked up)
chain: MEGDNCNKSRHKSHNMINPNYASVRCTQPLPSVIQLRSRNKMIGITEDPSSDSEPVSSNQPLLLTNLSYEVHTFNDNNNHERPAPQEQSTQNTMISMQSEQKSDRFTASNLGMFQYMKFEIGEDGDDHEEEAILTNREKLRHILHSKPIHVAIIVLVVLDSFLVVGELLIALKVIIVPHGNPAPEILHGFSLSILSIFMVEIALKIIADHRHFIHHKVEVLDAVVVVISFGVDIALIFVGECEALAAIGLLVILRLWRVFRIINGIIVTVKTKADDRVHEIKKKNSELELQIHNLEEKLSQKEQDMSRLHEILRCNNIDIPPTVPLTTSVQIHSTTTASADV
modifications: Alexa488-maleimide (donor) or TMR-MTS (acceptor) on the introduced cysteine 242
  stoichiometry N: 2
